# Experimental data reported in paper PMC2767407.
# B1: recombinant human DDAH-2 (Homo sapiens) (protein)
# chain: MGTPGEGLGRCSHALIRGVPESLASGEGAGAGLPALDLAKAQREHGVLGGKLRQRLGLQLLELPPEESLPLGPLLGDTAVIQGDTALITRPWSPARRPEVDGVRKALQDLGLRIVEIGDENATLDGTDVLFTGREFFVGLSKWTNHRGAEIVADTFRDFAVSTVPVSGPSHLRGLCGMGGPRTVVAGSSDAAQKAVRAMAVLTDHPYASLTLPDDAAADCLFLRPGLPGVPPFLLHRGGGDLPNSQEALQKLSDVTLVPVSCSELEKAGAGLSSLCLVLSTRPHS
# Substrate: CN(C)C(=N)NCCC[C@H](N)C(=O)O
# Test: enzyme kinetics of refolded recombinant enzyme
# Assay type: biochemical, Homo sapiens
# Settings: authors' own initial, unpublished results; assay conditions not told
protein,measurement,value
B1,Km,16 µM
